Laboratory results: US8895526B2, “Identification of RNAI targets and use of RNAI for rational therapy of chemotherapy-resistant leukemia and other cancers” (Cold Spring Harbor Laboratory, priority 2009, dated 2014)

B1: Tex14.3976: shRNA, SEQ ID NO: 185 (nucleic acid)
chain: TGCTGTTGACAGTGAGCGCCAGGAGCTACTTGATGAAATTTAGTGAAGCCACAGATGTAAATTTCATCAAGTAGCTCCTGATGCCTACTGCCTCGGA
B2: Htatip2.575: shRNA, SEQ ID NO: 133 (nucleic acid)
chain: TGCTGTTGACAGTGAGCGACAGCAGTTTCTTATACCTACATAGTGAAGCCACAGATGTATGTAGGTATAAGAAACTGCTGGTGCCTACTGCCTCGGA
B3: Slc11a1.307: shRNA, SEQ ID NO: 178 (nucleic acid)
chain: TGCTGTTGACAGTGAGCGCAACATTGAGTCCGACCTTCAATAGTGAAGCCACAGATGTATTGAAGGTCGGACTCAATGTTTTGCCTACTGCCTCGGA
B4: Centd3.3993: shRNA, SEQ ID NO: 107 (nucleic acid)
chain: TGCTGTTGACAGTGAGCGCCTGGACCACAAGCATCCTTAATAGTGAAGCCACAGATGTATTAAGGATGCTTGTGGTCCAGTTGCCTACTGCCTCGGA
B5: Klrb1b.845: shRNA, SEQ ID NO: 136 (nucleic acid)
chain: TGCTGTTGACAGTGAGCGCCAGATTCTTCATTGTATAAATTAGTGAAGCCACAGATGTAATTTATACAATGAAGAATCTGTTGCCTACTGCCTCGGA
B6: S100a9.148: shRNA, SEQ ID NO: 177 (nucleic acid)
chain: TGCTGTTGACAGTGAGCGCCAGACAAATGGTGGAAGCACATAGTGAAGCCACAGATGTATGTGCTTCCACCATTTGTCTGATGCCTACTGCCTCGGA
B7: Hexa.1510: shRNA, SEQ ID NO: 131 (nucleic acid)
chain: TGCTGTTGACAGTGAGCGAGAGCAGTAACCTGACAACTAATAGTGAAGCCACAGATGTATTAGTTGTCAGGTTACTGCTCCTGCCTACTGCCTCGGA
B8: Casp1.248: shRNA, SEQ ID NO: 100 (nucleic acid)
chain: TGCTGTTGACAGTGAGCGCCAGTGAGTATAGGGACAATAATAGTGAAGCCACAGATGTATTATTGTCCCTATACTCACTGATGCCTACTGCCTCGGA
B9: Klf5.581: shRNA, SEQ ID NO: 135 (nucleic acid)
chain: TGCTGTTGACAGTGAGCGCTCCGATAATTTCAGAGCATAATAGTGAAGCCACAGATGTATTATGCTCTGAAATTATCGGAATGCCTACTGCCTCGGA
B10: Nrp1.2022: shRNA, SEQ ID NO: 154 (nucleic acid)
chain: TGCTGTTGACAGTGAGCGACACAAGGTTCATCAGGATCTATAGTGAAGCCACAGATGTATAGATCCTGATGAACCTTGTGGTGCCTACTGCCTCGGA
B11: Wnt10b.1717: shRNA, SEQ ID NO: 190 (nucleic acid)
chain: TGCTGTTGACAGTGAGCGCCTCGAATAGACTAAGATGAAATAGTGAAGCCACAGATGTATTTCATCTTAGTCTATTCGAGTTGCCTACTGCCTCGGA
B12: Mgst1.549: shRNA, SEQ ID NO: 142 (nucleic acid)
chain: TGCTGTTGACAGTGAGCGCAAGGAGCAGACTGTACTTGTATAGTGAAGCCACAGATGTATACAAGTACAGTCTGCTCCTTATGCCTACTGCCTCGGA
B13: Rgs6.896: shRNA, SEQ ID NO: 173 (nucleic acid)
chain: TGCTGTTGACAGTGAGCGCCAAGTGAAGATTGACCGGAAATAGTGAAGCCACAGATGTATTTCCGGTCAATCTTCACTTGTTGCCTACTGCCTCGGA
B14: Pde1b.2027: shRNA, SEQ ID NO: 162 (nucleic acid)
chain: TGCTGTTGACAGTGAGCGCTGCCTCCAAGTTTCTAAGCAATAGTGAAGCCACAGATGTATTGCTTAGAAACTTGGAGGCAATGCCTACTGCCTCGGA
B15: Lima1.3235: shRNA, SEQ ID NO: 138 (nucleic acid)
chain: TGCTGTTGACAGTGAGCGAACGGACATTGTACCCAGATAATAGTGAAGCCACAGATGTATTATCTGGGTACAATGTCCGTCTGCCTACTGCCTCGGA
B16: Aspa.996: shRNA, SEQ ID NO: 92 (nucleic acid)
chain: TGCTGTTGACAGTGAGCGCATGAAGCTGCATATTATGAAATAGTGAAGCCACAGATGTATTTCATAATATGCAGCTTCATTTGCCTACTGCCTCGGA
B17: Cdc42ep1.317: shRNA, SEQ ID NO: 103 (nucleic acid)
chain: TGCTGTTGACAGTGAGCGCCTAGCAGTTGTAAGCAATCAATAGTGAAGCCACAGATGTATTGATTGCTTACAACTGCTAGTTGCCTACTGCCTCGGA
B18: Nmur1.7: shRNA, SEQ ID NO: 152 (nucleic acid)
chain: TGCTGTTGACAGTGAGCGCCTGCAATATCAGTGAGTTCAATAGTGAAGCCACAGATGTATTGAACTCACTGATATTGCAGATGCCTACTGCCTCGGA
B19: Fpr1.375: shRNA, SEQ ID NO: 124 (nucleic acid)
chain: TGCTGTTGACAGTGAGCGATTGGTTCATGTGCAAATTCATTAGTGAAGCCACAGATGTAATGAATTTGCACATGAACCAACTGCCTACTGCCTCGGA
B20: Pkm2.2154: shRNA, SEQ ID NO: 166 (nucleic acid)
chain: TGCTGTTGACAGTGAGCGCGCCCACCTGAATGTCAATAAATAGTGAAGCCACAGATGTATTTATTGACATTCAGGTGGGCATGCCTACTGCCTCGGA
B21: Myo7a.618: shRNA, SEQ ID NO: 149 (nucleic acid)
chain: TGCTGTTGACAGTGAGCGCCCGCCAGTACACCAACAAGAATAGTGAAGCCACAGATGTATTCTTGTTGGTGTACTGGCGGATGCCTACTGCCTCGGA
B22: Ctbs.796: shRNA, SEQ ID NO: 110 (nucleic acid)
chain: TGCTGTTGACAGTGAGCGCCCCACAGAGCATCTCACTAAATAGTGAAGCCACAGATGTATTTAGTGAGATGCTCTGTGGGTTGCCTACTGCCTCGGA
B23: Pdgfrb.1028: shRNA, SEQ ID NO: 163 (nucleic acid)
chain: TGCTGTTGACAGTGAGCGAAACGACCATGGCGATGAGAAATAGTGAAGCCACAGATGTATTTCTCATCGCCATGGTCGTTCTGCCTACTGCCTCGGA
B24: Rbks.337: shRNA, SEQ ID NO: 172 (nucleic acid)
chain: TGCTGTTGACAGTGAGCGAAGCCTCCATAATTGTCAATAATAGTGAAGCCACAGATGTATTATTGACAATTATGGAGGCTGTGCCTACTGCCTCGGA

The molecules below were run on tet-on competent MLL/AF9+Nras AML (assay: Pooled negative selection RNAi screening (deep sequencing)). Settings: deep sequencing reads, On Dox compared to T0.
Format: cell-based, mouse
From the text: (§1) In addition to the analysis of single shRNAs for inhibitory effects in vitro and in vivo, the combination of tet-on competent cancer models and tet-regulatable shRNA expression vectors allowing for monitoring shRNA expression through fluorescent and other reporter genes (e.g. TRMPV and derivates) facilitates pooled shRNA negative selection screening (FIG. 37). In such approaches a pool of over 1,000 shRNAs are retrovirally transduced into tet-on competent cancer models (here MLL/AF9+Nras AML) and selected for shRNA containing cells by either drug selection (e.g. G418) or fluorescence-activated cell sorting (FACS). Selected cell populations harboring a library of shRNAs then can be cultured in the absence or presence of doxycyline (off dox and on dox, respectively) or injected into syngeneic recipient mice that are either treated with doxycyline or left untreated.
(§2) The representation of each shRNA within the pool can be effectively assessed by deep sequencing of shRNA cassettes in a given cell population. For this, genomic DNA is extracted from leukemia cells containing the shRNA pool, and the shRNA guide or passenger strand (21-22 target gene specific nucleotides of the shRNA) by PCR using primers specific for common sequences flanking the gene specific part of the shRNA (e.g. miR30 19 nt loop and miR30 common 3′ sequence). The primers also contain 5′-adapters required for deep sequencing (e.g. for Illumina/Solexa sequencing primers are p5+mir3: 5′-[…]-3′ (SEQ ID NO: 215) and p7+Loop: 5′-[…]-3′ (SEQ ID NO: 216)). Deep sequencing is subsequently performed using a primer binding the flanking nucleotide sequence next to the target gene specific part of the shRNA (for Illumina/Solexa platforms the primer is mir30EcoR1Seq: 5′-TAGCCCCTTGAATTCCGA GGCAGTAGGCA-3′ (SEQ ID NO: 217)).
(§3) The use of shRNA vectors that allow for monitoring of shRNA expression through fluorescent and other reporter genes (e.g. TRMPV) in combination with tet-on competent mouse models facilitates the isolation of pure shRNA expressing cell populations (e.g. by FACS, for TRMPV by sorting of Venus/dsRed double positive cells (FIG. 38). This selection of shRNA expressing cells prior to DNA isolation strongly reduces the background caused by cell populations with insufficient shRNA induction, which are predicted to contain genomic representation of the whole shRNA library without shRNA specific shifts in representation. The final readout is based on the comparison of shRNA representation (i.e. deep sequencing read numbers) before the assay (t0) or from cell populations left without doxycycline treatment (off dox) to those where shRNA were induced and cells subsequently sorted for shRNA expressing cells (on dox). shRNA with inhibitory effects are predicted to loose representation (show less reads) on dox compared to t0 and off dox.
(§4) This pooled is RNAi screening strategy can be applied to rapidly survey inhibitory effects of large pools of shRNAs (˜1000 at a time) in different tet-on competent cancer models and normal control cells (FIG. 39). For example, a pool of 1166 shRNAs targeting 836 predominantly druggable genes associated with MLL fusion proteins in human leukemia and mouse models of MLL/AF9-induced AML (MLL cure library) was analyzed in pooled negative selection screening in tet-on competent MLL/AF9+Nras AML and immortalized murine embryonic fibroblasts (Mef) in parallel. To establish and validate this screening approach, the pool also contained 64 control shRNAs each of which have been previously analyzed for inhibitory effects in both AML cells and Mefs using the same experimental system (FIG. 40).
(§5) After pooling of 1166 experimental and 64 control shRNAs the presence of shRNAs was verified by deep sequencing of shRNAs within the plasmid vector pool (FIG. 41). […]

Molecule	Fold depletion in AML
B1	9.60 Fold
B2	15.74 Fold
B3	9.52 Fold
B4	13.37 Fold
B5	9.74 Fold
B6	13.18 Fold
B7	1,777.36 Fold
B8	16.16 Fold
B9	9.37 Fold
B10	13.60 Fold
B11	15.69 Fold
B12	9.14 Fold
B13	14.33 Fold
B14	15.12 Fold
B15	16.44 Fold
B16	13.25 Fold
B17	14.91 Fold
B18	19.45 Fold
B19	9.66 Fold
B20	9.63 Fold
B21	14.79 Fold
B22	19.44 Fold
B23	16.16 Fold
B24	17.02 Fold

The molecules below were run on immortalized murine embryonic fibroblasts (Mef) in the same assay as above. Settings: deep sequencing reads, on dox compared to initial representation.
Format: cell-based
From the text: as §1, §2, §3, §4, §5

Molecule	Fold depletion in Mef
B1	1.90 Fold
B2	1.08 Fold
B3	0.41 Fold
B4	1.77 Fold
B5	0.43 Fold
B6	2.68 Fold
B7	2.13 Fold
B8	3.84 Fold
B9	1.01 Fold
B10	1.80 Fold
B11	1.35 Fold
B12	1.09 Fold
B13	1.99 Fold
B14	1.31 Fold
B15	0.56 Fold
B16	0.68 Fold
B17	1.47 Fold
B18	2.58 Fold
B19	3.07 Fold
B20	1.92 Fold
B21	4.42 Fold
B22	0.19 Fold
B23	2.15 Fold
B24	1.07 Fold
